Assay results: paper PMC6937582, “Human leukocyte antigen (HLA) class II peptide flanking residues tune the immunogenicity of a human tumor-derived epitope” (The Journal of Biological Chemistry, 2019)

Assays:
[1] = biological target: HLA-DR1 (HLA-DRα*0101 and HLA-DRβ1*0101) (human); assay: ELISA; competitive peptide-binding assay: test peptide 10^-4-10^-10 M against 4.5 nM biotinylated CLIP 99-117 marker peptide for 0.1 μg refolded HLA-DR1-CLIP 105-117; 20 mM MES, 140 mM NaCl, 0.02% NaN3, pH 5, overnight at 37 °C; HLA-DR1 captured on anti-DR L243, bound marker detected with streptavidin-HRP; % competitive inhibition, four-parameter fit
[2] = biological target: HLA-DR1 (HLA-DRα*0101 and HLA-DRβ1*0101); assay: in vitro competition assay (HLA-DR1 peptide binding)
[3] = biological target: HLA-DR1 (HLA-DRα*0101 and HLA-DRβ1*0101) (human); assay: ELISA

Question: Which IC50 [1] does the source give for “5T4_(11–30) peptide (from UniProt Q13641 11-30)” here?
Answer: The IC50 was 535 nM.

Question: 5T4_(111–130) 20-mer peptide E3A was tested. Which IC50 [2] did it give?
Answer: Its IC50 is 149 nM.

Question: “IAV hemagglutinin_(306–319) epitope (peptide)” was tested. Which IC50 [3] did it give?
Answer: The IC50 was 13 nM.
